Assay results: patent US20140221281A1 (Sanofi, published 2014)
Where two headings read alike, the source gives them in different places. *1 amine or outer side, *2 acyl side, *3 side chain or, on linkers, in order; H or OH if unused. Where no end group is shown, it is not given here. Side-chain parts run from the residue outwards. [ ]: non-standard residue; d: D form. The star is where a group is joined. γGlu = O=C(O)[C@H](CCC(=O)[*:2])N[*:1]; Stearoyl = CCCCCCCCCCCCCCCCCC(=O)*; Palmitoyl = CCCCCCCCCCCCCCCC(=O)*; αMeOrn = C[C@](N)(CCCN)C(=O)O; αMeK = C[C@](N)(CCCCN)C(=O)O; Aib = CC(C)(N)C(=O)O

B1: SEQ ID NO: 17 (peptide)
peptide: Y[Aib]EGTFTSDLSIQLEERAA[αMeK]EFIEWLKNTGPSSGAPPPS-NH2
modifications: N-terminus assumed
SMILES: CC[C@H](C)[C@H](NC(=O)[C@H](CO)NC(=O)[C@H](CC(C)C)NC(=O)[C@H](CC(=O)O)NC(=O)[C@H](CO)NC(=O)[C@@H](NC(=O)[C@H](Cc1ccccc1)NC(=O)[C@@H](NC(=O)CNC(=O)[C@H](CCC(=O)O)NC(=O)C(C)(C)NC(=O)[C@@H](N)Cc1ccc(O)cc1)[C@@H](C)O)[C@@H](C)O)C(=O)N[C@@H](CCC(N)=O)C(=O)N[C@@H](CC(C)C)C(=O)N[C@@H](CCC(=O)O)C(=O)N[C@@H](CCC(=O)O)C(=O)N[C@@H](CCCNC(=N)N)C(=O)N[C@@H](C)C(=O)N[C@@H](C)C(=O)N[C@@](C)(CCCCN)C(=O)N[C@@H](CCC(=O)O)C(=O)N[C@@H](Cc1ccccc1)C(=O)N[C@H](C(=O)N[C@@H](CCC(=O)O)C(=O)N[C@@H](Cc1c[nH]c2ccccc12)C(=O)N[C@@H](CC(C)C)C(=O)N[C@@H](CCCCN)C(=O)N[C@@H](CC(N)=O)C(=O)N[C@H](C(=O)NCC(=O)N1CCC[C@H]1C(=O)N[C@@H](CO)C(=O)N[C@@H](CO)C(=O)NCC(=O)N[C@@H](C)C(=O)N1CCC[C@H]1C(=O)N1CCC[C@H]1C(=O)N1CCC[C@H]1C(=O)N[C@@H](CO)C(N)=O)[C@@H](C)O)[C@@H](C)CC
B2: SEQ ID NO: 15 (peptide)
peptide: Y[Aib]QGTFTSDLSIQK([γGlu-Stearoyl])DEQRA[αMeOrn]EFIEWLKAGGPSSGAPPPS-NH2
modifications: N-terminus assumed
SMILES: CCCCCCCCCCCCCCCCCC(=O)N[C@@H](CCC(=O)NCCCC[C@H](NC(=O)[C@H](CCC(N)=O)NC(=O)[C@@H](NC(=O)[C@H](CO)NC(=O)[C@H](CC(C)C)NC(=O)[C@H](CC(=O)O)NC(=O)[C@H](CO)NC(=O)[C@@H](NC(=O)[C@H](Cc1ccccc1)NC(=O)[C@@H](NC(=O)CNC(=O)[C@H](CCC(N)=O)NC(=O)C(C)(C)NC(=O)[C@@H](N)Cc1ccc(O)cc1)[C@@H](C)O)[C@@H](C)O)[C@@H](C)CC)C(=O)N[C@@H](CC(=O)O)C(=O)N[C@@H](CCC(=O)O)C(=O)N[C@@H](CCC(N)=O)C(=O)N[C@@H](CCCNC(=N)N)C(=O)N[C@@H](C)C(=O)N[C@@](C)(CCCN)C(=O)N[C@@H](CCC(=O)O)C(=O)N[C@@H](Cc1ccccc1)C(=O)N[C@H](C(=O)N[C@@H](CCC(=O)O)C(=O)N[C@@H](Cc1c[nH]c2ccccc12)C(=O)N[C@@H](CC(C)C)C(=O)N[C@@H](CCCCN)C(=O)N[C@@H](C)C(=O)NCC(=O)NCC(=O)N1CCC[C@H]1C(=O)N[C@@H](CO)C(=O)N[C@@H](CO)C(=O)NCC(=O)N[C@@H](C)C(=O)N1CCC[C@H]1C(=O)N1CCC[C@H]1C(=O)N1CCC[C@H]1C(=O)N[C@@H](CO)C(N)=O)[C@@H](C)CC)C(=O)O
B3: SEQ ID NO: 11 (peptide)
peptide: Y[Aib]EGTFTSDLSIQK([γGlu-Palmitoyl])EERAA[αMeK]EFIEWLKNTGPSSGAPPPS-NH2
modifications: N-terminus assumed
SMILES: CCCCCCCCCCCCCCCC(=O)N[C@@H](CCC(=O)NCCCC[C@H](NC(=O)[C@H](CCC(N)=O)NC(=O)[C@@H](NC(=O)[C@H](CO)NC(=O)[C@H](CC(C)C)NC(=O)[C@H](CC(=O)O)NC(=O)[C@H](CO)NC(=O)[C@@H](NC(=O)[C@H](Cc1ccccc1)NC(=O)[C@@H](NC(=O)CNC(=O)[C@H](CCC(=O)O)NC(=O)C(C)(C)NC(=O)[C@@H](N)Cc1ccc(O)cc1)[C@@H](C)O)[C@@H](C)O)[C@@H](C)CC)C(=O)N[C@@H](CCC(=O)O)C(=O)N[C@@H](CCC(=O)O)C(=O)N[C@@H](CCCNC(=N)N)C(=O)N[C@@H](C)C(=O)N[C@@H](C)C(=O)N[C@@](C)(CCCCN)C(=O)N[C@@H](CCC(=O)O)C(=O)N[C@@H](Cc1ccccc1)C(=O)N[C@H](C(=O)N[C@@H](CCC(=O)O)C(=O)N[C@@H](Cc1c[nH]c2ccccc12)C(=O)N[C@@H](CC(C)C)C(=O)N[C@@H](CCCCN)C(=O)N[C@@H](CC(N)=O)C(=O)N[C@H](C(=O)NCC(=O)N1CCC[C@H]1C(=O)N[C@@H](CO)C(=O)N[C@@H](CO)C(=O)NCC(=O)N[C@@H](C)C(=O)N1CCC[C@H]1C(=O)N1CCC[C@H]1C(=O)N1CCC[C@H]1C(=O)N[C@@H](CO)C(N)=O)[C@@H](C)O)[C@@H](C)CC)C(=O)O
B4: SEQ ID NO: 16 (peptide)
peptide: Y[Aib]EGTFTSDLSIQK([γGlu-Palmitoyl])EERAA[αMeK]EFIEWLKAGGPSSGAPPPS-NH2
modifications: N-terminus assumed
SMILES: CCCCCCCCCCCCCCCC(=O)N[C@@H](CCC(=O)NCCCC[C@H](NC(=O)[C@H](CCC(N)=O)NC(=O)[C@@H](NC(=O)[C@H](CO)NC(=O)[C@H](CC(C)C)NC(=O)[C@H](CC(=O)O)NC(=O)[C@H](CO)NC(=O)[C@@H](NC(=O)[C@H](Cc1ccccc1)NC(=O)[C@@H](NC(=O)CNC(=O)[C@H](CCC(=O)O)NC(=O)C(C)(C)NC(=O)[C@@H](N)Cc1ccc(O)cc1)[C@@H](C)O)[C@@H](C)O)[C@@H](C)CC)C(=O)N[C@@H](CCC(=O)O)C(=O)N[C@@H](CCC(=O)O)C(=O)N[C@@H](CCCNC(=N)N)C(=O)N[C@@H](C)C(=O)N[C@@H](C)C(=O)N[C@@](C)(CCCCN)C(=O)N[C@@H](CCC(=O)O)C(=O)N[C@@H](Cc1ccccc1)C(=O)N[C@H](C(=O)N[C@@H](CCC(=O)O)C(=O)N[C@@H](Cc1c[nH]c2ccccc12)C(=O)N[C@@H](CC(C)C)C(=O)N[C@@H](CCCCN)C(=O)N[C@@H](C)C(=O)NCC(=O)NCC(=O)N1CCC[C@H]1C(=O)N[C@@H](CO)C(=O)N[C@@H](CO)C(=O)NCC(=O)N[C@@H](C)C(=O)N1CCC[C@H]1C(=O)N1CCC[C@H]1C(=O)N1CCC[C@H]1C(=O)N[C@@H](CO)C(N)=O)[C@@H](C)CC)C(=O)O

What was measured:
Assay in all cases: cell-based or functional assay
[1] = biological target: T1, human GIP receptor (human, UniProt P48546 22-466)
T1 sequence (looked up): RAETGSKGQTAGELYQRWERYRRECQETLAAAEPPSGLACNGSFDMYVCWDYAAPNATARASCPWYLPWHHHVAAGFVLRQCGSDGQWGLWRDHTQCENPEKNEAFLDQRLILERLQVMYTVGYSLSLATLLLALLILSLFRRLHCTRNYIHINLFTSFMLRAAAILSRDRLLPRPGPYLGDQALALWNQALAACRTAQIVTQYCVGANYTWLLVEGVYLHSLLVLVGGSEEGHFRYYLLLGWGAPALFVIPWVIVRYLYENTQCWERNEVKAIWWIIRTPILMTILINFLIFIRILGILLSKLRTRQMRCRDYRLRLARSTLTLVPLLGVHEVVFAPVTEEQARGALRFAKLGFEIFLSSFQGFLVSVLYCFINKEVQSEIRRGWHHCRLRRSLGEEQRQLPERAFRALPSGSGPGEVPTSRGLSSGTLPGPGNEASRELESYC

[2] = biological target: T2, human GLP-1 receptor (human, UniProt P43220 24-463)
[3] = biological target: T1, human GIP receptor; remark: listed apart in the source
[4] = biological target: T2, human GLP-1 receptor; remark: listed apart in the source
[5] = biological target: human glucagon receptor (human, UniProt P47871 26-477)
Sequence of human glucagon receptor (P47871 26-477): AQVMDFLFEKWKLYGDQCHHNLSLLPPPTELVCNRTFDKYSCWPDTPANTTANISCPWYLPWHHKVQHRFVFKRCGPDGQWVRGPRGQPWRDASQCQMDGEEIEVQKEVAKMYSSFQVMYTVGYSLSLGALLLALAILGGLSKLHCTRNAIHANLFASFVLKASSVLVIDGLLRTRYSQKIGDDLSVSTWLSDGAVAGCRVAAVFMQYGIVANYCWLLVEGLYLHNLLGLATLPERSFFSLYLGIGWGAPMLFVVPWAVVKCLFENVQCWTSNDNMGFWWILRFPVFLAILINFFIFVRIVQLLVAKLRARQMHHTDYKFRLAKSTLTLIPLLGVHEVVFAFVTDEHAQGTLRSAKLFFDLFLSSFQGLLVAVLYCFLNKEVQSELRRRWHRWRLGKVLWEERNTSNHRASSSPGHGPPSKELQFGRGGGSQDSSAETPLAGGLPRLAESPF

[6] = biological target: T1, human GIP receptor; remark: listed apart in the source
[7] = biological target: T2, human GLP-1 receptor; remark: listed apart in the source
Target sequence in this assay (P43220 24-463): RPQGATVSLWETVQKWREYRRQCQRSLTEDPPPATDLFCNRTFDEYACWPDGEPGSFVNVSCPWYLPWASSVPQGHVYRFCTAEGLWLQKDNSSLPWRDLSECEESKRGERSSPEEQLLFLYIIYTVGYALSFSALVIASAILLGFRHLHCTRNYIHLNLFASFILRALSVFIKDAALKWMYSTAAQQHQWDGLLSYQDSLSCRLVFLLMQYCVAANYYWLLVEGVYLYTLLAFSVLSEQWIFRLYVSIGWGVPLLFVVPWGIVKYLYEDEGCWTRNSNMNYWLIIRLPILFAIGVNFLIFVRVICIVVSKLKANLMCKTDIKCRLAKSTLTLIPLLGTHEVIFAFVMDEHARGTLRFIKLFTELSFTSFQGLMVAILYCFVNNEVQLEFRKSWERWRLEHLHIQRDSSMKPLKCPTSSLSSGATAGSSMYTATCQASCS

Row | Binder | EC50 hGIPR [pM] (cAMP formation) [1] | EC50 hGLP-1 R [pM] (cAMP formation) [2] | EC50 hGIP R [pM] (cAMP formation) [3] | EC50 hGLP-1 R [pM] (cAMP formation) [4] | EC50 hGLUC R [pM] (cAMP formation) [5] | EC50 hGIP R [pM] (cAMP formation) [6] | EC50 hGLP-1 R [pM] (cAMP formation) [7]
1 | B1 | 163 | 5.9 | – | – | – | – | –
2 | B2 | – | – | 8.9 | 16.1 | 4 | – | –
3 | YAEGTFTSDVSIYLEGQAAKEFIAWLVKGR-NH2 [Tyr(1)Ile(12)-GLP1] | – | – | – | – | – | 3660 | 5
4 | B3 | 7 | 5.1 | 7 | 5.1 | 3160 | – | –
5 | B4 | – | – | 2.5 | 4.1 | 19800 | – | –
